For one molecule, Kd results are on record in doi:10.1101/2021.10.18.464838 (2021).

Where no end group is shown, it is not given here.

Assay [1] addresses DnaJB4 (recombinant, human, full length, wild type) (human, UniProt Q9UDY4 1-337). Kind of assay: FP.
The target of a further assay is T1, CHIP (recombinant human) (human, UniProt Q9UNE7 1-303).
T1 chain: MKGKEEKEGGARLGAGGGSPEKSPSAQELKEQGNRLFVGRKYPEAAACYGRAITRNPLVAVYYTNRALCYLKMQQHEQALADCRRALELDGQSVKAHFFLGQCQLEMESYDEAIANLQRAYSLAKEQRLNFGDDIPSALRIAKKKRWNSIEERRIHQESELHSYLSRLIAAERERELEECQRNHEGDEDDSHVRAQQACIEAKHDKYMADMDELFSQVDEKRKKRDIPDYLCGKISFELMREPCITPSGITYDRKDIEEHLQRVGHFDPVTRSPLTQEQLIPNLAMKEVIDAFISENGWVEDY
Kind of assay: FP.

Chain of DnaJB4 (recombinant, human, full length, wild type) (Q9UDY4 whole entry): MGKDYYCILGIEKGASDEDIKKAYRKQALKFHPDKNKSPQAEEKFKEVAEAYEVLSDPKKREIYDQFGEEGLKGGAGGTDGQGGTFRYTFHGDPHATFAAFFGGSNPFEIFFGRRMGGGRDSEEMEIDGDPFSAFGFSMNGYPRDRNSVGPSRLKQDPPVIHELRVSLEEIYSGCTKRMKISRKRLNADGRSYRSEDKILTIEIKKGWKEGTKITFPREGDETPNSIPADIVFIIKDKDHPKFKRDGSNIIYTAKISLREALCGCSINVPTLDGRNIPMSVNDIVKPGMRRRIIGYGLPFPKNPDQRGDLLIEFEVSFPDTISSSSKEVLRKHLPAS

Regarding GSGPEIEEVD-OH (not fully specified (N-terminus); printed as FITC-Ahx-GSGPEIEEVD) [Hsp72 phosphomimetic T636E tracer FITC-Ahx-GSGPEIEEVD], the Kd (as a rule, the free concentration of one partner at which half of the binding sites on the other are occupied at equilibrium, for simple one-to-one binding) was 1.68 µM in assay [1] and 5.04 µM with CHIP (recombinant human).
